For 5 sequences, Kd and binding signal results are on record in publication PMC11218354.

Some results are limits rather than exact numbers.

In data set [1] the target is nucleolin (UniProt P19338). In words: SPR. As to conditions: SPR: 1x PBS, nucleolin on CM5 chip, analyte 0.156-10 uM, regeneration 50 mM NaOH, temperature not stated, ELONA: 1x PBS, 1 mM MgCl2, 0.05% Tween 20, 1 uM ….
Data set [2] has as its target nucleolin (UniProt P19338). The data set is described as follows: ELONA. Conditions: 1 mM Mg2+; U6 = 5-fluorouridine (5FU replaces T6; printed F); ELONA: 1x PBS, 1 mM MgCl2, 0.05% Tween 20, 1 uM biotin.

Sequence of nucleolin (P19338 2-710): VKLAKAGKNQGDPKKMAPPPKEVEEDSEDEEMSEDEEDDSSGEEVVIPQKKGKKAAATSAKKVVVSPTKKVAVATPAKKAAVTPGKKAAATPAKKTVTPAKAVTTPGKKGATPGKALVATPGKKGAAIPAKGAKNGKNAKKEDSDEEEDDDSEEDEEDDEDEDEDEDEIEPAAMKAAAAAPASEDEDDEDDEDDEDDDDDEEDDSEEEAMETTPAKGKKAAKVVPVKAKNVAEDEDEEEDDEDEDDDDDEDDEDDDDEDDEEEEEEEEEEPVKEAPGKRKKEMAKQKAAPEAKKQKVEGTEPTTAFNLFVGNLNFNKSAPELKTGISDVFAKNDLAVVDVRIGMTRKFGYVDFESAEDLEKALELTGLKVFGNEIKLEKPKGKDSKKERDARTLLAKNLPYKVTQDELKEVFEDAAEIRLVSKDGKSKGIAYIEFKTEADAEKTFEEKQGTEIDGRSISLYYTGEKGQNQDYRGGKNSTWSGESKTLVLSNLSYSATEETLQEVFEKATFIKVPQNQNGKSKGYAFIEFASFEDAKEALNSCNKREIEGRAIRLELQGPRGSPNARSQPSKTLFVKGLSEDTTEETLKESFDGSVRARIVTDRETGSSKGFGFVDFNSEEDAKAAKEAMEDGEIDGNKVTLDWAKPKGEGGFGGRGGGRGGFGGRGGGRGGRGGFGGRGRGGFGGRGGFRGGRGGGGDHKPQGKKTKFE

For orientation: Kd means the concentration at which binding is half-saturated. A low value points to a tighter complex. As for “GGTGGUGGTGGTTGTGGTGGTGGTGG [FASP (FA-paclitaxel, thioether linker)]”, the Kd with nucleolin [1] (U6 = 5-fluorouridine (5FU replaces T6), 3'-amino DNA conjugated to paclitaxel through thioether linker) is 61.7 nM.

For the sequence “GGTGGUGGTGGTTGTGGTGGTGGTGG [FA, biotinylated (sequence 2)]”, the binding signal with nucleolin [2] was > 100 % of AS1411.

Turning to “GGTGGUGGTGGTTGTGGTGGTGGTGG [FA (sequence 2, 5FU at site 6 of AS1411)]”, in the data set with nucleolin [1] (U6 = 5-fluorouridine (5FU replaces T6; printed F)), the Kd worked out at 24.8 nM. That is a double-digit nanomolar value.

For the sequence “GGTGGTGGTGGTTGTGGTGGTGGTGG [ASP (AS1411-paclitaxel, thioether linker)]”, the Kd with nucleolin [1] (3'-amino DNA conjugated to paclitaxel through thioether linker) is 253 nM.

As to GGTGGTGGTGGTTGTGGTGGTGGTGG [AS1411], in the data set with nucleolin [1], the Kd amounted to 69.1 nM.
